Laboratory results reported in patent US12428446B2, “Peptide compound or pharmaceutically acceptable salt thereof” (Eyebio Korea, priority 2019, dated 2025).
Values belong to the substance of their own block, whether it stands above or below them. Primed or numbered codes have the meaning given here. Where no end group is shown, it is not given here. [ ]: non-standard residue; d: D form. The star is where a group is joined. Asu′ = aspartimide (aminosuccinimide); Hyp = O=C(O)[C@@H]1C[C@@H](O)CN1; Tle = CC(C)(C)[C@H](N)C(=O)O; Aib = CC(C)(N)C(=O)O; OiPr = CC(C)O*

Experiment: Evaluation of dissolution stability (content change on storage in dissolved state)
Format: physicochemical
Details: 1 mg/1 ml dissolved state, 40° C. and RH 75%

Substance: Hyp-Gly-Gln-Asp-Aib ([Hyp]GQD[Aib]) [Example 85]
Day 1 content (%): 92.08%
Day 3 content (%): 88.07%
Day 7 content (%): 75.04%
Initial content (%): 92.62%

Substance: Hyp-Gly-Gln-Asp-Aib-Leu-Ala ([Hyp]GQD[Aib]LA) [Example 83]
Day 1 content (%): 95.35%
Day 3 content (%): 94.70%
Day 7 content (%): 94.00%
Initial content (%): 95.42%

Substance: Hyp-Gly-Gln-Asp-Ala ([Hyp]GQDA) [Example 33]
Day 1 content (%): 96.68%
Day 3 content (%): 89.94%
Day 7 content (%): 86.76%
Initial content (%): 99.46%

Substance: Hyp-Gly-Gln-Asp-Ala-Leu ([Hyp]GQDAL) [Example 36]
Day 1 content (%): 94.13%
Day 3 content (%): 90.58%
Day 7 content (%): 85.95%
Initial content (%): 95.40%

Substance: Hyp-Gly-Gln-Asp-Ala-Leu-Ala ([Hyp]GQDALA) [Example 39]
Day 1 content (%): 91.76%
Day 3 content (%): 88.16%
Day 7 content (%): 85.50%
Initial content (%): 93.03%

Day 1 content (%): 81.47%
Day 3 content (%): 75.61%
Day 7 content (%): 68.25%
Initial content (%): 89.54%
Substance: Hyp-Gly-Gln-Asp-Gly (isopropyl ester) [Example 106]

Substance: Hyp-Gly-Gln-Asp-Gly-D Leu ([Hyp]GQDG[dL]) [Example 62]
Day 1 content (%): 92.60%
Day 3 content (%): 84.99%
Day 7 content (%): 70.41%
Initial content (%): 97.24%

Substance: Hyp-Gly-Gln-Asp-Gly-D Leu-Ala ([Hyp]GQDG[dL]A) [Example 65]
Day 1 content (%): 92.97%
Day 3 content (%): 86.96%
Day 7 content (%): 75.40%
Initial content (%): 95.64%

Day 1 content (%): 76.34%
Day 3 content (%): 65.41%
Day 7 content (%): 58.41%
Initial content (%): 87.55%
Substance: Hyp-Gly-Gln-Asp-Gly-Leu (isopropyl ester) [Example 107]

Substance: Hyp-Gly-Gln-Asp-Gly-Leu-Ala ([Hyp]GQDGLA) [Example 12]
Day 1 content (%): 89.90%
Day 3 content (%): 79.04%
Day 7 content (%): 58.75%
Initial content (%): 95.31%

Substance: Hyp-Gly-Gln-Asp-Gly-Leu-Ala (isopropyl ester) ([Hyp]GQDGLA-OiPr) [Example 108]
Day 1 content (%): 67.07%
Day 3 content (%): 62.81%
Day 7 content (%): 59.24%
Initial content (%): 79.49%

Substance: Hyp-Gly-Gln-Asp-Gly-Leu-Ala-Gly ([Hyp]GQDGLAG) [Example 15]
Day 1 content (%): 91.06%
Day 3 content (%): 81.63%
Day 7 content (%): 70.56%
Initial content (%): 91.84%

Substance: Hyp-Gly-Gln-Asp-Gly-Leu-D Ala ([Hyp]GQDGL[dA]) [Example 66]
Day 1 content (%): 89.15%
Day 3 content (%): 79.64%
Day 7 content (%): 60.49%
Initial content (%): 96.42%

Substance: Hyp-Gly-Gln-Asp-Gly-Pro-Lys ([Hyp]GQDGPK) [Example 28]
Day 1 content (%): 98.50%
Day 3 content (%): 97.37%
Day 7 content (%): 96.19%
Initial content (%): 99.14%

Substance: Hyp-Gly-Gln-Asp-Gly-Val ([Hyp]GQDGV) [Example 71]
Day 1 content (%): 93.07%
Day 3 content (%): 88.76%
Day 7 content (%): 82.04%
Initial content (%): 95.21%

Substance: Hyp-Gly-Gln-Asp-Gly-Val-Ala ([Hyp]GQDGVA) [Example 72]
Day 1 content (%): 95.91%
Day 3 content (%): 90.84%
Day 7 content (%): 82.07%
Initial content (%): 97.08%

Substance: Hyp-Gly-Gln-Asp-Leu-Leu ([Hyp]GQDLL) [Example 35]
Day 1 content (%): 97.50%
Day 3 content (%): 95.78%
Day 7 content (%): 93.68%
Initial content (%): 98.51%

Substance: Hyp-Gly-Gln-Asp-Leu-Leu-Ala ([Hyp]GQDLLA) [Example 38]
Day 1 content (%): 92.19%
Day 3 content (%): 88.19%
Day 7 content (%): 85.93%
Initial content (%): 97.06%

Substance: Hyp-Gly-Gln-Asp-Val ([Hyp]GQDV) [Example 21]
Day 1 content (%): 79.91%
Day 3 content (%): 77.37%
Day 7 content (%): 69.10%
Initial content (%): 84.05%

Substance: Hyp-Gly-Gln-Asp-Val-Leu [Example 22] ([Hyp]GQDVL)
Day 1 content (%): 85.47%
Day 3 content (%): 83.10%
Day 7 content (%): 82.67%
Initial content (%): 88.14%

Substance: Hyp-Gly-Gln-Asp-Val-Leu [Example 34] ([Hyp]GQDVL)
Day 1 content (%): 97.05%
Day 3 content (%): 95.50%
Day 7 content (%): 91.59%
Initial content (%): 97.18%

Substance: Hyp-Gly-Gln-Asp-Val-Leu-Ala ([Hyp]GQDVLA) [Example 23]
Day 1 content (%): 95.25%
Day 3 content (%): 94.22%
Day 7 content (%): 90.56%
Initial content (%): 96.40%

Substance: Hyp-Gly-Gln-Asp-Val-Leu-Ala-Gly ([Hyp]GQDVLAG) [Example 24]
Day 1 content (%): 96.14%
Day 3 content (%): 95.71%
Day 7 content (%): 95.13%
Initial content (%): 96.57%

Substance: Hyp-Gly-Gln-Asu-Gly ([Hyp]GQ[Asu′]G) [Example 100]
Day 1 content (%): 93.43%
Day 3 content (%): 85.30%
Day 7 content (%): 74.12%
Initial content (%): 97.58%

Day 1 content (%): 79.15%
Day 3 content (%): 69.45%
Day 7 content (%): 59.07%
Initial content (%): 85.34%
Substance: Hyp-Gly-Gln-Asu-Gly (isopropyl ester) [Example 109]

Substance: Hyp-Gly-Gln-Asu-Gly-Leu ([Hyp]GQ[Asu′]GL) [Example 101]
Day 1 content (%): 86.61%
Day 3 content (%): 86.38%
Day 7 content (%): 83.40%
Initial content (%): 88.72%

Day 1 content (%): 90.71%
Day 3 content (%): 82.07%
Day 7 content (%): 69.37%
Initial content (%): 97.48%
Substance: Hyp-Gly-Gln-Asu-Gly-Leu (isopropyl ester) [Example 111]

Substance: Hyp-Gly-Gln-Asu-Gly-Leu-Ala ([Hyp]GQ[Asu′]GLA) [Example 102]
Day 1 content (%): 90.18%
Day 3 content (%): 85.07%
Day 7 content (%): 81.09%
Initial content (%): 92.47%

Day 1 content (%): 92.40%
Day 3 content (%): 85.41%
Day 7 content (%): 72.35%
Initial content (%): 93.25%
Substance: Hyp-Gly-Gln-Asu-Gly-Leu-Ala (isopropyl ester) [Example 113]

Substance: Hyp-Gly-Gln-D Asp-Gly-Leu ([Hyp]GQ[dD]GL) [Example 61]
Day 1 content (%): 87.65%
Day 3 content (%): 83.70%
Day 7 content (%): 56.36%
Initial content (%): 92.80%

Substance: Hyp-Gly-Gln-D Asp-Leu ([Hyp]GQ[dD]L) [Example 125]
Day 1 content (%): 97.15%
Day 3 content (%): 95.07%
Day 7 content (%): 88.48%
Initial content (%): 98.28%

Substance: Hyp-Gly-Gln-Glu-Aib-Leu-Ala ([Hyp]GQE[Aib]LA) [Example 92]
Day 1 content (%): 97.05%
Day 3 content (%): 96.92%
Day 7 content (%): 96.56%
Initial content (%): 96.92%

Substance: Hyp-Gly-Gln-Glu-Gly ([Hyp]GQEG) [Example 67]
Day 1 content (%): 99.14%
Day 3 content (%): 98.75%
Day 7 content (%): 98.07%
Initial content (%): 98.36%

Substance: Hyp-Gly-Gln-Glu-Gly-Leu ([Hyp]GQEGL) [Example 68]
Day 1 content (%): 98.25%
Day 3 content (%): 97.51%
Day 7 content (%): 96.93%
Initial content (%): 98.71%

Substance: Hyp-Gly-Gln-Glu-Gly-Leu-Ala ([Hyp]GQEGLA) [Example 69]
Day 1 content (%): 96.94%
Day 3 content (%): 96.32%
Day 7 content (%): 95.69%
Initial content (%): 97.12%

Substance: Hyp-Gly-Gln-Glu-Leu ([Hyp]GQEL) [Example 90]
Day 1 content (%): 98.58%
Day 3 content (%): 98.32%
Day 7 content (%): 97.94%
Initial content (%): 98.68%

Substance: Hyp-Gly-Gln-Glu-Leu-Leu ([Hyp]GQELL) [Example 88]
Day 1 content (%): 98.94%
Day 3 content (%): 98.07%
Day 7 content (%): 97.37%
Initial content (%): 99.23%

Day 1 content (%): 98.77%
Day 3 content (%): 98.43%
Day 7 content (%): 98.15%
Initial content (%): 98.59%
Substance: Hyp-Gly-Gln-Glu-Phenyl Gly-Leu-Ala [Example 94]

Substance: Hyp-Gly-Gln-Glu-Val-Leu ([Hyp]GQEVL) [Example 89]
Day 1 content (%): 99.07%
Day 3 content (%): 98.81%
Day 7 content (%): 98.43%
Initial content (%): 99.57%

Substance: Hyp-Gly-Gln-Glu-Val-Leu-Ala ([Hyp]GQEVLA) [Example 87]
Day 1 content (%): 98.07%
Day 3 content (%): 96.57%
Day 7 content (%): 94.38%
Initial content (%): 99.14%

Substance: Hyp-Gly-Gln-Glu-tert Leu-Leu-Ala ([Hyp]GQE[Tle]LA) [Example 93]
Day 1 content (%): 98.35%
Day 3 content (%): 98.05%
Day 7 content (%): 97.79%
Initial content (%): 98.39%

Substance: Hyp-Gly-Gln-His-Gly-Leu ([Hyp]GQHGL) [Example 82]
Day 1 content (%): 92.51%
Day 3 content (%): 85.09%
Day 7 content (%): 79.04%
Initial content (%): 97.54%

Substance: Hyp-Gly-Gln-His-Gly-Leu-Ala ([Hyp]GQHGLA) [Example 80]
Day 1 content (%): 97.18%
Day 3 content (%): 97.13%
Day 7 content (%): 97.07%
Initial content (%): 98.44%

Substance: Hyp-Gly-Gln-Leu-Gly-Leu-Ala-Gly ([Hyp]GQLGLAG) [Example 17]
Day 1 content (%): 96.53%
Day 3 content (%): 96.69%
Day 7 content (%): 96.27%
Initial content (%): 96.55%

Substance: Hyp-Gly-Gln-Leu-Leu ([Hyp]GQLL) [Example 121]
Day 1 content (%): 99.29%
Day 3 content (%): 99.13%
Day 7 content (%): 99.22%
Initial content (%): 99.39%
